According to the DeepSol protein solubility set:

Assay: soluble on expression in E. coli; label from the status in PepcDB or PDB records

| Sequence | soluble on expression in E. coli |
| --- | --- |
| MAARHAVRGGTVYGGGNGYRVNLVGRGTGGSTMVHHQPLNRISSQRSVAPVGRVLNRGALRNGAQQPLHVSTSSPAFHYMEEQPSPTTNGMVIQAKTPGAGVIQARHMQSQQSFPSGGPARVLMNRSSTNAGLSRMVGGGYDQQLPTAPNGRLMIPSTAVRVPGSGMASPRLQTTPQPLTKSQKAKDEMKMAYQVGREEALQQRRNDLEDDEENLGYAETYSEYTPAKLRSGMAHPDSVVESASLSSVSPPDVKYQISIPEYLIDMGHISALQLEAVIYACQMHERRMPSGERYGYLIGDGAGVGKGRTVACIIFENYLQGRKRAIWLSVSSDLKFDAERDLRDCGAPNIPVYALNKMKYAKISGKENGSIKKGVMFATYTSLIGECRGAKSRKYRSRISQLIQWFGQDYDGVIILDECHRAKNLVPTAGAKPTKTGRMVLELQKALPNARVVYASATGATEPRNMAYMTRLGLWGERQAFPEFHDFISAVERRGVGAMEIVAMDMKQRGLYLARQLSFRGVSFAVQEVQLSSEFVKMYDAAVKLWMEARRQFQTVIETMDEEERSTCKTVWGQFWACHQRFFKYLCIAAKVDTCVQLSREAIKAKKCVVIGLQSTGESATLETLEEMGGELNEFVSTAKTVLYGLIDKHFPTDASFSMGDRDIFKDFDDFERPAKRRKTRETLSFLGDVGFDTWTGVTTGMGGRVGDGVTKNITRGLSGIGRSSMSSSTGNTNNEDANSTTSESSDGSDDEVENDMISENGGESGDLESAREEAEGARTLEDGEQDEWVKALLAEAESSSDDSDEEVVKDEDEDEEAESKSGETHEQEEEFNPFMCDFTNDDPWAHNQQIVEDTPQKDRKAKKRKRDEEEAERLREKVRKREERREKKRRRAIRRAEREKQRRNEELQARGSATDFITSSRICGNGSGEQDDINPMLIKTELLAAVERLAPSLPANTLDQLIDEMGGPEYVAEMTGRRGHMVTSETGDVMYQRRNANAEVSLELINMEEKEKFMRGEKLIAIISEAASSGISLQSDRRAINKRRRVHITLELPWSADKAIQQFGRTHRSNQVSGPEYVFLISELAGEKRFASIVAKRLESLGALTHGDRRATETRDLSQFNMDNKYGRVALDTLLKTVIGQAGTPLIDPPKDYKAGEFFEDMRLYMEGVGLLAKNKTGQYTIEKEAATIPKFLNRILGLPVHAQNSLFHYFSEIVAELIAQSKHDGTYDTGIMDLGTGDDQVRKLETRVFTGRVDNGSFRVEIHKIGVERGVSWEEAMELHKEHSNDDDGFYICHPGGANTANTKKVAALVYGIGKIRMDNGARLYAITRPSTGRSPKLMTMADLSKRFHKVSIDEAKEVWKQQYDSAANMCQHNYVYGKCRTESNGTYCEVGRRTRTYFVLSGSVLSVWPIVEEVLAGSDRKSSRMQVIRVRTEQDQKIVGKLVVFFGK | not soluble |
| MSLSNTPIELKGSSFTLSVVHLHEAEPEVIRQALEDKIAQAPAFLKHAPVVINVSGLESPVNWPELHKIVTSTGLRIIGVSGCKDASLKVEIDRMGLPLLTEGKEKAVRPAPVEPATPSEPPQNANPITKTRLIDVPVRSGQRIYAPQCDLIVTSHVSAGAELIADGNIHVYGMMRGRALAGASGDREAQIFCTHLTAELVSIAGVYWLSDKIPAEFYGKAARLRLADNALTVQPLNEGHHHHHH | soluble |
| MGSDKIHHHHHHMAPDLASLQRISGDSAIDQWLQVPGSWVEEPNERRGGASGVQRVYTGDGRLLYRKQQTGHVYRDWQRPFGYPTAMRERDALRAFESLGIRVPRLVYSGCRKVDGQWQALLVTEALEGFSSLDECYARGDQDRWGEAKHQRILQQIGATIARMNLAHWQHGCLYPKHIFVRVEGEAIEVALIDLEKSRRRLTVNKASQHDLKQLKRRSSWTGAQWQAFIYGYQTAFGSAIKGLQT | not soluble |
| MGSDKIHHHHHHMSKNEIIWFDGKWSDSGVPMIGAADHAFWMASTVFDGARAINGHLPDLSAHSQRVINSALTMGMKPKIDRQEIERLVHEGMSHLTNQETDYYIKMLFFCPGGFLLPDADTTTFALHIFEAPLPEDKGFSATFSEYRRPAPSMAPTEAKASCLYPNTQRIIRDAIARGFENAVVLDSDGNVAEFAVANLWIVRDGVALTPTPNGSFLNGITRQRVMALLRDDGITVRETQLAPSDVMEADEVFSTGNHGKVLHCNRVEDRSLPYGPIAQRARELYMAYAHTC | not soluble |
| MSTLELHHIGKSYQSVMVLDRIDLHVPPGSRTAIVGPSGSGKTTLLRIIAGFETPDAGKVILQGKAMFDGTTYVPAHKRGIGFVPQDGALFPHFTVAGNIGYGLKGSQRDKERRINELMDMVALDRRLSALWPHEISGGQQQRVALARALAQRPVLMLLDEPFSALDTALRASTRKAVAELLSEANIASILVTHDQTEALSFADQVAVMRAGKLAHVGPPQELYLRPVDEPTATFLGETLMLTAQLGTGLAHCALGQVKVDNPHRRGEARIMLRPEQITLTPLRPEQYNAASCLAKVIAIDFAGFISTLTLQIISSGETIEIKTISREDLHVGLTVGLDIMGQAHIFAE | not soluble |
| ADPVMLEVFNNLFMSIAEQMGYRLQNTAYSVNIKERLDFSCAIFDAAGNLIANAPHMPVHLGSMGESIKTVMRANASRMRPGDAYVVNDPYHGGTHLPDVTVITPVFDRAGRDILFFVGSRGHHADIGGTTPGSMPPDSRTVEDEGVLFTNFQLVGNGEFRDREAREILASGRWPARNPDQNIADLHAQIAANEKGVQELLRMCDHFGLDVVRAYMGHVQDNAEEAVRRVISVLKDGRYTYRLDNGAVIEVAVRVDRQARSAVVDFTGTSGQLENNFNAPGAIAVAAVLYVFRTLVDDEIPLNAGCLKPLEIIIPEGSMLRPNPPASVVAGNVETSMCIVNALYGALGVLAASQGTMNNFTFGNARYQYYETISGGTGAGPLRIDAAGPADAGFAGTSVVQAHMTNSRLTDPEVLELRFPVRLESYEIRHGSGGAGRYRGGDGGVRRVRFLEPMTAAILSNNRRHVPFGLAGGGAGAMGRNYVERADGRVEPLGPQDSAELAAGDVFVVETPGGGDYGPA | not soluble |
| GAQNEKNMYSYKKIGNKYIVSINNHTEIVKALNAFCKEKGILSGSINGIGAIGELTLRFFNPKTKAYDDKTFREQMEISNLTGNISSMNEQVYLHLHITVGRSDYSALAGHLLSAIQNGAGEFVVEDYSERISRTYNPDLGLNIYDFER | soluble |
| MKPLKEYLLIPTQMRVFETQTQAIETSLSVNAQTSESSEAFTVKKDPHEIKVTGKKSGESELVYDLAGFPIKKTKVHVLPDLKVIPGGQSIGVKLHSVGVLVGFHQINTSEGKKSPGETAGIEAGDIIIEMNGQKIEKMNDVAPFIQKAGKTGESLDLLIKRDKQKIKTKLIPEKDEGEGKYRIGLYIRDSAAGIGTMTFYEPKTKKYGALGHVISDMDTKKPIVVENGEIVKSTVTSIEKGTGGNPGEKLARFSSERKTIGDINRNSPFGIFGTLHQPIQNNISDQALPVAFSTEVKKGPAEILTVIDDDKVEKFDIEIVSTTPQKFPATKGMVLKITDPRLLKETGGIVQGMSGSPIIQNGKVIGAVTHVFVNDPTSGYGVHIEWMLSEAGIDIYGKEKASLEHHHHHH | not soluble |
| MISAHCNLRLLCSSDSSASASQVAGTTEVVENLVTNDNSPNIPEAIDRLFSDIANINRESMAEIADIQIEEMAVNLWNWALTIGGGWLVNEEQKIRLHYVACKLLSMCEASFASEQSIQRLIMMNMRIGKEWLDAGNFLIADECFQAAVASLEQLYVKLIQRSSPEADLTMEKITVESDHFRVLSYQAESAVAQGDFQRASMCVLQCKDMLMRLPQMTSSLHHLCYNFGVETQKNNKYEESSFWLSQSYDIGKMDKKSTGPEMLAKVLRLLATNYLDWDDTKYYDKALNAVNLANKEHLSSPGLFLKMKILLKGETSNEELLEAVMEILHLDMPLDFCLNIAKLLMDHERESVGFHFLTIIHERFKSSENIGKVLILHTDMLLQRKEELLAKEKIEEIFLAHQTGRQLTAESMNWLHNILWRQAASSFEVQNYTDALQWYYYSLRFYSTDEMDLDFTKLQRNMACCYLNLQQLDKAKEAVAEAERHDPRNVFTQFYIFKIAVIEGNSERALQAIITLENILTDEESEDNDLVAERGSPTMLLSLAAQFALENGQQIVAEKALEYLAQHSEDQEQVLTAVKCLLRFLLPKIAEMPESEDKKKEMDRLLTCLNRAFVKLSQPFGEEALSLESRANEAQWFRKTAWNLAVQCDKDPVMMREFFILSYKMSQFCPSDQVILIARKTCLLMAVAVDLEQGRKASTAFEQTMFLSRALEEIQTCNDIHNFLKQTGTFSNDSCEKLLLLYEFEVRAKLNDPLLESFLESVWELPHLETKTFETIAIIAMEKPAHYPLIALKALKKALLLYKKEEPIDISQYSKCMHNLVNLSVPDGASNVELCPLEEVWGYFEDALSHISRTKDYPEMEILWLMVKSWNTGVLMFSRSKYASAEKWCGLALRFLNHLTSFKESYETQMNMLYSQLVEALSNNKGPVFHEHGYWSKSD | not soluble |
